The record followed here is patent US20240376225A1 (CHILDREN S MEDICAL CENTER, published 2024).

Like-named read-outs stand apart in the source and are kept apart here.

Assay [1] concerns the target T1, human CD21 on Raji B cells or primary B cells (human, UniProt P20023 21-1033).
T1 sequence (looked up): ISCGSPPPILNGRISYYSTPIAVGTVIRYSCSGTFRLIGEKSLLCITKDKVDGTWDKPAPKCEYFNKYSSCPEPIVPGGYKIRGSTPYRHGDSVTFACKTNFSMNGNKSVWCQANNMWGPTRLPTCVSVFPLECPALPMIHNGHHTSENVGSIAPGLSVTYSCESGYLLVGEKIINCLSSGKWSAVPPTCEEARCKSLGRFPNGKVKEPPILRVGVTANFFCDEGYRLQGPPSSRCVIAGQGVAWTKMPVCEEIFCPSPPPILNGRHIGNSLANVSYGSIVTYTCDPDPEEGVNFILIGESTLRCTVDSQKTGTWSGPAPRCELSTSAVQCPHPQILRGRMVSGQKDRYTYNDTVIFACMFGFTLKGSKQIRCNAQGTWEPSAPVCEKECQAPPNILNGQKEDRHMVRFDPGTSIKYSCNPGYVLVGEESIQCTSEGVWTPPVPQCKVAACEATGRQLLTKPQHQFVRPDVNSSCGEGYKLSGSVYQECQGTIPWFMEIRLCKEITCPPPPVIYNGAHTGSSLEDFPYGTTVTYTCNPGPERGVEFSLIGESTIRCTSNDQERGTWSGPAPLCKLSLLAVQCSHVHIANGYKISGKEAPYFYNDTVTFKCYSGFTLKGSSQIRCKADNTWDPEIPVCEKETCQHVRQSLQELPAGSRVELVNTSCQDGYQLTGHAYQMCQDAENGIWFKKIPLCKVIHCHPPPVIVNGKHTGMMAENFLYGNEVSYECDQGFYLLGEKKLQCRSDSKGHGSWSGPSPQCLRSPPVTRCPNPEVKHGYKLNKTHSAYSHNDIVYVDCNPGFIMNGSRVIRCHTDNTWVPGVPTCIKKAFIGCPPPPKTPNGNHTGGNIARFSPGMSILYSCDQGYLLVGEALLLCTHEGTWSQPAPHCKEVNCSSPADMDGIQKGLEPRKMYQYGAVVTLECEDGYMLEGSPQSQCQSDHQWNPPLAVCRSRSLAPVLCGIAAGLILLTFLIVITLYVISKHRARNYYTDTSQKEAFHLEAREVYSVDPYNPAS
The assay is described as follows: cell-based or functional assay.

Assay [2] concerns the target cyno CD21 protein (cynomolgus monkey). The assay is described as follows: affinity KD; method not restated (Biacore elsewhere). For orientation: SPR reads the build-up and loss of mass on a sensor chip optically.
In assay [3] the target is T2, human CD21 protein (human, UniProt P20023 21-971, limits assumed).
T2 construct: the Biacore set-up is not described; also called huCD21; CR2
T2 sequence (looked up): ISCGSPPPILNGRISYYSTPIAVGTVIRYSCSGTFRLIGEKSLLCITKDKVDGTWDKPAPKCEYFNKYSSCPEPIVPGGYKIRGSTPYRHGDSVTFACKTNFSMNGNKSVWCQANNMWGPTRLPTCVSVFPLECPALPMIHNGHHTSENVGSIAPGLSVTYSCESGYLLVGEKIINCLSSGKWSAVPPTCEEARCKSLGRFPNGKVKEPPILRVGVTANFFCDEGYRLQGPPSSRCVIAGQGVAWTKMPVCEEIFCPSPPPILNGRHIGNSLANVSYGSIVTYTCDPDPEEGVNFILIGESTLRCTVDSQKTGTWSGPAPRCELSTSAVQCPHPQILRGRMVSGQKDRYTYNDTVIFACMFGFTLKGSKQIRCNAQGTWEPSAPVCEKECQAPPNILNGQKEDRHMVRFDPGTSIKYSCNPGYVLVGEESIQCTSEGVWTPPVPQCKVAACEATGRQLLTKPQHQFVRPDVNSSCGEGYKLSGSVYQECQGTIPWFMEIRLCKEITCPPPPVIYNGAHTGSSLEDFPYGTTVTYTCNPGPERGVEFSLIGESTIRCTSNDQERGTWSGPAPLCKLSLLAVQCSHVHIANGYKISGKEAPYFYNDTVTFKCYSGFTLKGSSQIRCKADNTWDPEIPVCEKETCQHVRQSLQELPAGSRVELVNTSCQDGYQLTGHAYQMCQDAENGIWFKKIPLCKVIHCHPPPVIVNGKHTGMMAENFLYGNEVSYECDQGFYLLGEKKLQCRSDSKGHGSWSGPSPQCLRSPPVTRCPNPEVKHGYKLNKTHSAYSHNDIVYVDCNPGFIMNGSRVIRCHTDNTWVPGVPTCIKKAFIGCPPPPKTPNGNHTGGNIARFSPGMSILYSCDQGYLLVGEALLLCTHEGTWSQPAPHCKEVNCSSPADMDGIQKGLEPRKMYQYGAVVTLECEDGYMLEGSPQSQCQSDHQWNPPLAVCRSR
The assay is described as above.

The target in assay [4] is cyno CD21 protein (cynomolgus monkey). The assay is described as follows: SPR (Biacore).
For assay [5], the target named is T1, human CD21 on Raji B cells or primary B …. The assay is described as follows: cell-based or functional assay. This is another data set of the same source.
In assay [6] the target is T2, human CD21 protein. The assay is described as follows: SPR (Biacore).
For a further assay, the target named is insulin (UniProt P01308). The assay is described as follows: polyreactivity ELISA on coated insulin; third number of the cell.
Sequence of insulin (P01308 25-54 limits assumed, chain 1 of 2): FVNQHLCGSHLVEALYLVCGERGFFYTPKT
Sequence of insulin (P01308 90-110 limits assumed, chain 2 of 2): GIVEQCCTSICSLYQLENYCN
Assay [7] has as its target T2, human CD21 protein. The assay is described as follows: affinity KD; method not restated (Biacore elsewhere). The source holds these as a separate data set.
Assay [8] has as its target T2, human CD21 protein. The assay is described as follows: SPR (Biacore). The source holds these as a separate data set.
The target in assay [9] is cyno CD21 protein (cynomolgus monkey). The assay is described as follows: SPR (Biacore). This is another data set of the same source.
For assay [10], the target named is T2, human CD21 protein. The assay is described as follows: SPR (Biacore), KD against Ab89.
Assay [11] deals with cyno CD21 protein (cynomolgus monkey). The assay is described as follows: SPR (Biacore), KD against Ab89.
In assay [12] the target is T1, human CD21 on Raji B cells or primary B …. The assay is described as follows: competition with human C3d on Raji B cells.
Assay [13] shares this target. The assay is described as follows: competition with human C3d on primary B cells.

B1: Ab420 (antibody, human IgG1, kappa, V domains shown)
VH: QVQLVQSGAEVKKPGSSVKVSCKASGGTFSSYAISWVRQAPGQGLEWMGRIIPILGIANYAQKFQGRVTITADKSTSTAYMELSSLRSEDTAVYYCAREDDISGYYQDWGQGTLVTVSS
VL: EIVMTQSPATLSVSPGERATLSCRAGQSINSHLAWYQQKPGQAPRLLIYDASTRATGIPARFSGSGSGTEFTLTISSLQSEDFAVYYCQQYEYWYTFGQGTKLEIKR
notes: IgG1
The term Kd denotes the concentration at which binding is half-saturated. Lower therefore signals tighter binding. As to B1, the “pAKT inhibition, IC50, nM; Primary B cells” value in assay [1] and in [5] was 61.1 nM each time. Moreover, the “pAKT inhibition, IC50, nM; Raji B cells” value in assay [1] and in [5] was 26.2 nM in each case. Besides, the equilibrium dissociation constant (Kd) was 220 pM in [2], 2260 pM in the assay with human CD21 protein [3], 220 pM in assay [4] and 2260 pM with human CD21 protein [6]. Also, the insulin-binding score (ratio to buffer well) with insulin turned out to be 2.

B2: Ab422 (antibody, human IgG1, kappa, V domains shown)
VH: QVQLVQSGAEVKKPGSSVKVSCKASGGELQTLAISWVRQAPGQGLEWMGRIIPILGIANYAQKFQGRVTITADKSTSTAYMELSSLRSEDTAVYYCAREDDISGYYQDWGQGTLVTVSS
VL: EIVMTQSPATLSVSPGERATLSCRAGQSINSYLAWYQQKPGQAPRLLIYDASTRATGIPARFSGSGSGTEFTLTISSLQSEDFAVYYCQQYEYWYTFGQGTKLEIKR
notes: IgG1
In the case of B2, the “pAKT inhibition, IC50, nM; Primary B cells” value in [1] and in assay [5] was 9.98 nM throughout. In addition, the “pAKT inhibition, IC50, nM; Raji B cells” value in assay [1] and in [5] was 15.8 nM throughout. The dissociation constant (Kd) in [2] amounted to 240 pM; in the assay with human CD21 protein [3] it was 40 pM; in assay [4] it was 240 pM; with human CD21 protein [6] it was 40 pM. In addition, in the assay with insulin, the insulin-binding score (ratio to buffer well) came out at 2.

B3: Ab646 (antibody, human IgG1, kappa, V domains shown)
VH: QVQLVQSGAEVKKPGSSVKVSCKASGGELQTLAISWVRQAPGQGLEWMGRIIPILGIANYAQKFQGRVTITADKSTSTAYMELSSLRSEDTAVYYCAREEDISGYYQDWGQGTLVTVSS
VL: EIVMTQSPATLSVSPGERATLSCRAGQSISSYLAWYQQKPGQAPRLLIYDASSRATGIPARFSGSGSGTEFTLTISSLQSEDFAVYYCQQYEYWYSFGQGTKLEIKR
notes: IgG1
In the case of B3, the Kd with human CD21 protein [7] came to 10 pM; in assay [2], 50 pM; with human CD21 protein [3], 10 pM. In addition, the insulin-binding score (ratio to buffer well) with insulin turned out to be 1.

B4: Ab424 (antibody, human IgG1, kappa, V domains shown)
VH: QVQLVQSGAEVKKPGSSVKVSCKASGGTFSTYAISWVRQAPGQGLEWMGRIIPILGIANYAQKFQGRVTITADKSTSTAYMELSSLRSEDTAVYYCAREDDISGYYQDWGQGTLVTVSS
VL: EIVMTQSPATLSVSPGERATLSCRAGQSINSYLAWYQQKPGQAPRLLIYDASTRATGIPARFSGSGSGTEFTLTISSLQSEDFAVYYCQQYEYWYTFGQGTKLEIKR
notes: IgG1
With B4, the “pAKT inhibition, IC50, nM; Primary B cells” value in assay [1] and in [5] was 11.6 nM throughout. Besides, the “pAKT inhibition, IC50, nM; Raji B cells” value in [1] and in [5] was 9.38 nM in each case. The dissociation constant (Kd) in assay [2] came to 30 pM; with human CD21 protein [3], 50 pM; in [4], 30 pM; in the assay with human CD21 protein [6] it was 50 pM. The insulin-binding score (ratio to buffer well) in the assay with insulin worked out at 2.

B5: Ab194 (antibody, human IgG1, kappa, V domains shown)
VH: QVQLVQSGAEVKKPGSSVKVSCKASGGTFSTYAISWVRQAPGQGLEWMGRIIPILGIANYAQKFQGRVTITADKSTSTAYMELSSLRSEDTAVYYCAREDDSSGYYQDWGQGTLVTVSS
VL: EIVMTQSPATLSVSPGERATLSCRAGQSINSYLAWYQQKPGQAPRLLIYDASTRATGIPARFSGSGSGTEFTLTISSLQSEDFAVYYCQQYEYWYTFGQGTKLEIKR
notes: full-length human IgG1
As a reminder, the IC50 is the point on the concentration scale where inhibition reaches its midpoint. A lower IC50 goes with inhibition by little substance. Take B5: the Kd in the assay with human CD21 protein [8] came out at 810 pM; in [9], 9160 pM. Besides, the “fold improvement of affinity over Ab89” value with human CD21 protein [10] was roughly 81 fold. This molecule showed a fold improvement of KD over Ab89 in assay [11] of 2 fold. Also, the IC50 amounted to 9 pM in [12] and 6 pM in assay [13].

B6: Ab648 (antibody, human IgG1, kappa, V domains shown)
VH: QVQLVQSGAEVKKPGSSVKVSCKASGGELSTYAISWVRQAPGQGLEWMGRIIPILGIANYAQKFQGRVTITADKSTSTAYMELSSLRSEDTAVYYCAREEDISGYYQDWGQGTLVTVSS
VL: EIVMTQSPATLSVSPGERATLSCRAGQSISSYLAWYQQKPGQAPRLLIYDASSRATGIPARFSGSGSGTEFTLTISSLQSEDFAVYYCQQYEYWYSFGQGTKLEIKR
notes: IgG1
Take B6: the Kd worked out at 10 pM with human CD21 protein [7], 150 pM in assay [2] and 10 pM with human CD21 protein [3]. Also, the insulin-binding score (ratio to buffer well) with insulin was 1.

B7: Ab204 (antibody, human IgG1, kappa, V domains shown)
VH: QVQLVQSGAEVKKPGSSVKVSCKASGGELQDLAISWVRQAPGQGLEWMGRIIPILGIANYAQKFQGRVTITADKSTSTAYMELSSLRSEDTAVYYCAREDDISGYYQDWGQGTLVTVSS
VL: EIVMTQSPATLSVSPGERATLSCRAGQSINSHLAWYQQKPGQAPRLLIYDASTRATGIPARFSGSGSGTEFTLTISSLQSEDFAVYYCQQYEYWYTFGQGTKLEIKR
notes: full-length human IgG1
On to B7, for which the Kd with human CD21 protein [8] was determined as 810 pM; in assay [9], 60 pM. Moreover, in the assay with human CD21 protein [10], the “fold improvement of affinity over Ab89” value is roughly 81 fold. In addition, the fold improvement of KD over Ab89 in [11] stood at 357 fold. Moreover, the IC50 is 5 pM in [12] and 7 pM in [13].

B8: Ab421 (antibody, human IgG1, kappa, V domains shown)
VH: QVQLVQSGAEVKKPGSSVKVSCKASGGTFSTYAISWVRQAPGQGLEWMGRIIPILGIANYAQKFQGRVTITADKSTSTAYMELSSLRSEDTAVYYCAREDDISGYYQDWGQGTLVTVSS
VL: EIVMTQSPATLSVSPGERATLSCRAGQSINSHLAWYQQKPGQAPRLLIYDASTRATGIPARFSGSGSGTEFTLTISSLQSEDFAVYYCQQYEYWYTFGQGTKLEIKR
notes: IgG1
With B8, the “pAKT inhibition, IC50, nM; Primary B cells” value in assay [1] and in assay [5] was 56.2 nM each time. Further, the “pAKT inhibition, IC50, nM; Raji B cells” value in assay [1] and in assay [5] was 8.59 nM each time. Moreover, the Kd in assay [2] was 250 pM; with human CD21 protein [3] it was 2260 pM; in [4], 250 pM; with human CD21 protein [6], 2260 pM. The insulin-binding score (ratio to buffer well) with insulin amounted to 2.
